The values below come from the nanobody polyreactivity screen of Harvey et al. (2022).

This data set can be described thus: yeast display, Sf9 membrane polyspecificity reagent, FACS + sequencing; frameworks hold sequencing errors. An outline of the steps:
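A synthetic nanobody library was expressed on Saccharomyces cerevisiae BJ5465 by galactose induction for 36–48 hours. The library was stained for 1 hour at 4 °C with 10% biotinylated, detergent-solubilized Sf9 membrane reagent and enriched with streptavidin microbeads before FACS. Low and high (top ~1%) gates were set on anti-HA fluorescence for expression and streptavidin fluorescence for reagent binding, and each polyreactivity label reflects the gate of origin.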
With “QVQLVESGGGLVQAGGSLRLSCAASGSIFQLNAMGWYRQAPGKERELDAAITSGGSTYYADSVKGRFTISRDNAKNTVYLQMNSLKPEDTAVYYCAAYYLYTTPTSEWLSGYDYWGQGTQVTVSS”, the “polyreactivity (PSR sort gate)” value is “low polyreactivity”.
The same measure for “QVQLVESGGGLVQAGGSLRLSCAASGSIFQNYAMGWYRQAPGKERELVAAISWSGDTYYADSVKGRFTISRDNAKNTVYLQMNSLKPEDTAVYYCAATYPYSLYYPYYGGDYDYWGQGTQVTVSS”: “low polyreactivity”; for “QVQLVESGGGLVQAGGSLRLSCAASGSIFQPNAMGGGGQAPGKERELVASIRGRGGDTYYADSVKGRFTISRDNAKNTVYLQMNSLKPEDTAVYYCAADYRWGQGTQVTVSS”: “low polyreactivity”.
The same measure for “QVQLVESGGGLVQAGGSLRLSCAASGSIFQPYAMGWYRPAPGKERELVAAINGRGGSTHYADSVKGRFTISRDNAKNTVYLQMNSLNPEDTAVYYCAATWAYPGSGYVYFYGNDYWGQGTQVTVSS”: “high polyreactivity”.
Turning to “QVQLVESGGGLVQAGGSLRLSCAASGSIFQPYAMGWYRQAPGKEREFVAAISRSGGITYYADSVKGRFTISRDNAKNTVYLQMNSLKPEDTAVYYCATGRQVVRSYSEGDYWGQGTQVTVSS”, the “polyreactivity (PSR sort gate)” value is “low polyreactivity”.
In the case of “QVQLVESGGGLVQAGGSLRLSCAASGSIFQPYAMGWYRQAPGKERELVATISSSGSTYYADSVKGRFTISRDNAKNTVYLQMTSLKPEDTAVYYCAAVYSDGPYNGYWLEYEYWGQGTQVTVSS”, the “polyreactivity (PSR sort gate)” value is on record as “low polyreactivity”.
Then “QVQLVESGGGLVQAGGSLRLSCAASGSIFQRYAMGWYRQAPGKEREFVAAISGRGGSTYYADSVKGRFTISRDNAKNTVYLQMNSLKPEDTAVYSCAADSSRFYGRPRYYYWGQGTQVTVSS”, with “high polyreactivity”.
Then “QVQLVESGGGLVQAGGSLRLSCAASGSIFQSYAMGWYRQAPGKERELVAAIDRSGTSTYYADSVKGRFTISRDNAKNTVYLQMNSLKPEDTAVYYCNTLRRSWQMDYWGQGTQVTVSS”, with “low polyreactivity”; and “QVQLVESGGGLVQAGGSLRLSCAASGSIFQSYDMGWYRQAPGKERELVAAIRSGDSTYYADSVKGRFTISRDNAKNTVYLQMNSLKPEDTAVYYCNARYGNESQGWEDYWGQGTQVTVSS”, with “low polyreactivity”.
As for “QVQLVESGGGLVQAGGSLRLSCAASGSIFQSYSMGWYRQAPGKERELVAAISRGGSTYYADSVKGRFTISRDNAKNTVYLQMNSLKPEDTAVYYCAAGSGGGKYLYYYWGQGTQVTVSS”, the “polyreactivity (PSR sort gate)” value is “low polyreactivity”.
Then “QVQLVESGGGLVQAGGSLRLSCAASGSIFQVYAMGWYRQAPGKETELVAAIRRRGGSTYYADSVKGRFTISRDNAKNTVYLQMNSLKPEDTAVDYCAARTVGFYRYDYWGLGTQVTVSS”, with “low polyreactivity”; and “QVQLVESGGGLVQAGGSLRLSCAASGSIFQVYAMGWYSQAPGKERELVAAITKSGVSTYYADSVKGRFTISRDNAKNTVYLQMNSLKPEDTAVYYCAAPRYVRYHRGYGFDYWGQGTQVTVSS”, with “low polyreactivity”.
The same measure for “QVQLVESGGGLVQAGGSLRLSCAASGSIFQWYAMGWYRQAPGKERELVAAITISGGSTHYADSVKGRFTISRDNAKNTVYLQMNSLKPEDTAVYYCATPRYPSYDYWGQGTQVTVSS”: “low polyreactivity”; for “QVQLVESGGGLVQAGGSLRLSCAASGSIFQYNAMGWYRPAPGKERELVAAISSRGGITYYADSVKGRFTISRDNAKNTVYLQMNSMKPEDTAVYDCAAVAYYSEVRWYEYWGQGTQVTVSS”: “high polyreactivity”; for “QVQLVESGGGLVQAGGSLRLSCAASGSIFQYNAMGWYRQAPGKEREFVAAISSRGGITYYADSVKGRFTISRDNAKNTVYLQMNSLKPEDTAVYYCAAEAYYSEVRWYEYWGQGTQVTVSS”: “high polyreactivity”.
For the sequence “QVQLVESGGGLVQAGGSLRLSCAASGSIFQYNAMGWYRQAPGKERELVAAISSRGGITYYADSVKGRFTISRDNAQNTVYLQMNSLKPEDTAVYYCAAEAYYSEVRWYEYWGQGTQVTVSS”, the “polyreactivity (PSR sort gate)” value is given as “high polyreactivity”.
The same measure for “QVQLVESGGGLVQAGGSLRLSCAASGSIFQYNAMGWYRQEPGKERELVATITYIGGRTYYAYSVKGRFTISRDNAKNTVYLQMNSLKPEDTAVYYCAAEYYVISSPSFYEYDYWGQGTQVTVSS”: “low polyreactivity”; for “QVQLVESGGGLVQAGGSLRLSCAASGSIFQYYAMGWYRPAARKERELVAAISWSGGSTYYADSVKGRFTISRDNAKTTVSFLMNSLKPEDTAVYYCNARLYHLDYQGRIIRYDYWGQGTQVTESS”: “high polyreactivity”; for “QVQLVESGGGLVQAGGSLRLSCAASGSIFQYYAMGWYRQAPGKEREFVAAISSSGGSTYYADSVKGRFTISRDNAKNTVSLQMNSLKPEDNAVYYCNTPYNGFRFDYWGQGTQVTVSS”: “low polyreactivity”.
Then “QVQLVESGGGLVQAGGSLRLSCAASGSIFQYYTMGWYRQAPGKERELVATISRRGGTTYYADSVKGRFTISRDNAKNTVYLQMNILKPEDTAVYYCNADSRTYRYYWSYGYWGQGTQVTVSS”, with “high polyreactivity”.
The same measure for “QVQLVESGGGLVQAGGSLRLSCAASGSIFRAYAMGWYRQAPGKERELVADISIGDNTYYADSVKGRFTISRDNAKNTVYLQMNSLKPEDTAVYYCAAVSDDVPWYWPQYTILDYWGQGTQVTVSS”: “high polyreactivity”; for “QVQLVESGGGLVQAGGSLRLSCAASGSIFRAYAMGWYRQAPGKERELVATIRKSGGSTYYADSVKGRFTISRDNAKNTVYLQMNSLKPEDTAVYYCAARTIRYVNFYYWGQGTQVTVSS”: “high polyreactivity”.
“QVQLVESGGGLVQAGGSLRLSCAASGSIFRCNAMGWYRQAPGKERELVAVINSSGGSTYYADSVKGRFTISRDNAKNTVYLQMNSLKPEDTAVYYCAADLFLDGSSQYDPNWWPDGWNTYRLLGGYWGQGTQVTVSS”: the “polyreactivity (PSR sort gate)” value is listed as “low polyreactivity”.
Regarding “QVQLVESGGGLVQAGGSLRLSCAASGSIFRDNAMGWYRQAPGKERELVASIRSSGGRTYYADSVKGRFTISRDNANNTVYLQMNSLKPEDTAVYYCAADWIYAPWYYQESVEYYYWGQGTQVTVSS”, the “polyreactivity (PSR sort gate)” value is listed as “low polyreactivity”.
Then “QVQLVESGGGLVQAGGSLRLSCAASGSIFRDYTMGWYRQAPGKERELVAAIRQDGGTTTYADSVKGRFTISRDNAKNTVYLQMNSLKPEDTAVYLWGQGTQVTVSS”, with “low polyreactivity”; and “QVQLVESGGGLVQAGGSLRLSCAASGSIFRFYAMGWYRQAPGKERELVADISWRGGSTYYADSVTGRFTISRDNAKNTVYLQMNSLKPEDTAVYYCAADGPGKYDYWGQGTQVTVSS”, with “high polyreactivity”; and “QVQLVESGGGLVQAGGSLRLSCAASGSIFRFYAMGWYRQATGKEREFVASITGTGGSTYYADSVKGRFTISRDNAKNTVYLQMNSLKPEDTAVYYCNARPYGWYDTYRLYGYWGQGTQVTVSS”, with “high polyreactivity”.
The same measure for “QVQLVESGGGLVQAGGSLRLSCAASGSIFRGKAMGWSRQAPGKERELVAGINRAGSTKYADSVKGRFTISRDNAKNTVYLQMNSLKPEDTAVYYCAAVRYERGLWSDYWGLGTQVTVSS”: “high polyreactivity”; for “QVQLVESGGGLVQAGGSLRLSCAASGSIFRGNAMGWYIQAPGKERELVAGINRAGSTKYADSVKGRFTISRDNAKNTVYLQMNSLKPEDTAVYYCAAVRYVRCLWSDYWGQGTKVTVSS”: “high polyreactivity”.
Consider “QVQLVESGGGLVQAGGSLRLSCAASGSIFRGNAMGWYRQAPGKERELVAAISKSGGSTYYADSVKGRFTISRDNAKNTVYLQMNSLKPEDTAVYYRAARTTYLYGMYYWGQGTQVTVSS”, for which the “polyreactivity (PSR sort gate)” value is recorded as “low polyreactivity”.
Then “QVQLVESGGGLVQAGGSLRLSCAASGSIFRGNAMGWYRQAPGKEREMVAAISVSGSRTYYADSVKGRFTISRDNAKNTVYLQMNSLIPEDTAVYYCNAVLRVKGSGDFDYWGEGTQVTVSS”, with “high polyreactivity”; and “QVQLVESGGGLVQAGGSLRLSCAASGSIFRGYAMGWYRQAPGKERELVAAINWSGSSTYYADSVKGRFTISRDNAKNTVYLQMYSMKPEDSAVYYCALVYYNRNLGGDYWGQGTQVTVSS”, with “low polyreactivity”.
Then “QVQLVESGGGLVQAGGSLRLSCAASGSIFRGYAMGWYRQATGKERELVATIDSSAGSTYYADSVKGRFTISRDNAKNTVYLQMHSLKPEDTAVYYCATDPYGYYYSGFDYWGQGTQVTVSS”, with “low polyreactivity”.
The same measure for “QVQLVESGGGLVQAGGSLRLSCAASGSIFRGYAMGWYRQEPEKERELVAAMSRRGGSTYYADSVKGRFSISRDNAKNTVYLQMNSLKPEDTAVYYCAKDGTGAGNYDYWGQGTQVTVSS”: “low polyreactivity”; for “QVQLVESGGGLVQAGGSLRLSCAASGSIFRGYTMGWYRQAPGKERELVAAISRSGGSTYYADSVKGRFTISRDNAKNTVYIQMNSLKPEDTAVYYCNVVYFVTTSPGYDYWGQGTQVTVSS”: “high polyreactivity”.
For the sequence “QVQLVESGGGLVQAGGSLRLSCAASGSIFRHNAMGWYRQAPGKERELVAAITSRGGSTYYADSVKGRFTISRDNAKNTVYLQMNSLKPEDTAVYYFAADYSSLSWGYDYWGQGTQVTVSS”, the “polyreactivity (PSR sort gate)” value was “high polyreactivity”.
Then “QVQLVESGGGLVQAGGSLRLSCAASGSIFRHYAMGWYSQAPGKERELVASITLRGGSTYYADSVKGPFTISRDNAKNTVYLQMNSLKPEDTAVYYCAKRAGPEYDYWGQGTQVTVSS”, with “low polyreactivity”; and “QVQLVESGGGLVQAGGSLRLSCAASGSIFRHYTMGWYRQAPGIERELVAVISSGGNTNYADSVKGRFTISRDNAKNTVYLQMNSLKPEDTAVDDCAARSHRYYSRVNYWGQGTQVTVSS”, with “high polyreactivity”; and “QVQLVESGGGLVQAGGSLRLSCAASGSIFRINAMGWYRQAPGKEREFVAAIRGSGGRTYYADSVKGRFTISRDNAKNTVYLQMNSLKPEDTAVYYCAADFSYRYFQRTSWPFDYWGQGTQVTVSS”, with “high polyreactivity”.
The same measure for “QVQLVESGGGLVQAGGSLRLSCAASGSIFRINAMGWYRQAPGKERELVAAISTSGGTTYYADSVKGRFTISRDNAKNTVYLQMNSLKPEDTAVYYCAARRVTSPFGSDSWGQGTQVTVSS”: “low polyreactivity”.
With “QVQLVESGGGLVQAGGSLRLSCAASGSIFRIYAMGWYRQAPGKERELVAAISTSGVRTYYADSVKGRFTISRDNAKNTVYLQMNSLKPEDTAVYYCNARYVRPRGTGDFDYWGQGTQVTVSS”, the “polyreactivity (PSR sort gate)” value is on record as “high polyreactivity”.
